Key:
Experiment in all cases: fluorescence polarisation titration
Conditions in all cases: reference: unphosphorylated CCPG1 FIR2 peptide; sites S104
[1] = target: LC3A (UniProt Q9H492)
[2] = target: FIP200 (RB1CC1) Claw domain, 1490-1594 (UniProt Q8TDY2)
[3] = target: GABARAPL2 (UniProt P60520)
[4] = target: LC3B (UniProt Q9GZQ8)
[5] = target: GABARAPL1 (UniProt Q9H0R8)
[6] = target: LC3C (UniProt Q9BXW4)

Measured: binding against the reference

CCPG1 FIR2, 99-113 (from UniProt Q9ULG6) pS104 CCPG1 FIR2 peptide
stronger: all assays above
